Measured values taken from the supplement of paper PMC12764529.
± gives the half width of the 95% confidence interval.

How the values were obtained:
[1] = folding stability dG unfold from chymotrypsin proteolysis; higher = more stable
How it was run: (§1)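 Only designs with AlphaFold2 dimer inter-PAE above 15 were retained; each was a mini-protein under 80 residues with no cysteine, in a PA-tagged cDNA display construct. After digestion with trypsin and chymotrypsin and sequencing, K50 was inferred by Bayesian fitting of counts, and unfolding free energy was derived per protease or combined against a sequence-predicted unfolded-state K50 and a shared folded-state K50.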

[2] = folding stability dG unfold from trypsin proteolysis; higher = more stable
How it was run: as §1

[3] = folding stability dG unfold (combined trypsin and chymotrypsin); higher = more stable
How it was run: as §1

Row | Sequence | folding stability dG unfold [1] [kcal/mol] | folding stability dG unfold [2] [kcal/mol] | folding stability dG unfold [3] [kcal/mol]
1 | SAGGSAGGSAGGMLSTNVTRTITLTYFDPNGSKPIETQTVTVTTFVEIFQEPVGNWTAASAGGSAGGSAGGS [r10_50_JUSTAS] | 0.759 ± 0.21 | 0.789 ± 0.08 | 0.786 ± 0.15
2 | SAGGSPARPVLVTITLPDGEEVTRRMTLEEIERLVAKDPNVKVTIELPDGSVYTVDPNTGTITKAPSAGGSA [r2_222_JUSTAS] | 2.49 ± 0.026 | 2.84 ± 0.075 | 2.63 ± 0.14
3 | SAGGSAGGSAMKKVTITLLDPRNGKEHTVTLPADITEEEAKAAAEAVAAERGWEVLSIEFEPSAGGSAGGSA [r18_322_JUSTAS] | 3.43 ± 0.1 | 3.61 ± 0.072 | 3.57 ± 0.071
4 | SAGGSAVVVTTDPNGTLTVYADNKVVKVKVIPLPRPDPLTGSTSTLLLVEVEVSPLKPDPLPPEFPSAGGSA [r15_515_TrMRF] | 2.65 ± 0.12 | 2.21 ± 0.2 | 2.44 ± 0.2
5 | SAGGSAGGSKKVEIKVKVKITNENGETLEVTATIVFDEKTGELYIYDEKTGKVYKISLDDIEPSAGGSAGGS [r12_772_TrROS_Hall] | 3.94 ± 0.077 | 2.03 ± 0.082 | 3.53 ± 0.09
6 | SAGGDKKWTAEFDVRKRDDTVEVTLTFTDPNGNETTETYTLTDDELAKLLAELPPEFKNVTRNEVLESAGGS [r16_298_JUSTAS] | 2.04 ± 0.11 | 1.57 ± 0.043 | 1.85 ± 0.16
7 | SAGGDPNTARVVVLTGHPDVITPEQIRTLLENLGADEIKSVEVFTTPTSRVVRFVDSNGAPTVIFVPSAGGS [r8_86_TrMRF] | 1.99 ± 0.032 | 1.8 ± 0.038 | 1.88 ± 0.072
8 | SAGGSASLNLTPDDNVTLTVSTPDGSGATVEVKVEKLPDGTIKLTETVTWPDGTVSTRTSTISTKASAGGSA [r15_476_JUSTAS] | 0.598 ± 0.028 | 1.08 ± 0.045 | 0.893 ± 0.041
9 | SAGSMRTRKYEVERGEDEIVFPLPDGKVLRLPPDVGATVEVEYDPDGPPVRVTVRFPDGADYVLPYEELSAG [r5_45_JUSTAS] | 1.11 ± 0.15 | -0.531 ± 0.45 | 0.69 ± 0.15
10 | SAGGSAGGSAGGLSPGDEIKIRIMIFYRDPGSGNMRPIQPFPITIKIEPPPPKPKDPNNNSAGGSAGGSAGG [r7_522_TrROS] | 3.82 ± 0.085 | 2.27 ± 0.1 | 3.08 ± 0.12
11 | SAGGSAGGSAGGMTQEVTLEPLPDGTVKLLSVEAPESTVTVPVKLPGGGEEVRTLPPEALSAGGSAGGSAGG [r7_829_JUSTAS] | -0.255 ± 0.15 | -0.0201 ± 0.045 | -0.131 ± 0.16
12 | SAGGSAGGKKKKKKKKKYYTFVLKVKEKDLTPEEIKKLFPNVKIEKKDGYLVITVKVNGKEIKFSAGGSAGG [r6_738_TrROS_Hall] | 2.66 ± 0.12 | 1.43 ± 0.19 | 2.11 ± 0.31
13 | SAGGSAKPKRFVALIKLKGPEGKEIAEIPIVISPDKPEVDIDEIAREIAEKLGVEEIEAEIKEIEESAGGSA [r15_333_TrMRF] | 0.633 ± 0.2 | 0.48 ± 0.13 | 0.498 ± 0.28
14 | SAGGDNFKIEIQFFPDGHIFILIKWPNGDWILIPVPIEYPVPKRDPDGEVKEPGPVTHTHLFLIPANDSAGG [r13_236_TrROS] | 3.21 ± 0.046 | 1.88 ± 0.097 | 2.74 ± 0.16
15 | SAGGSAGGSAGGWNIQVNPDNLKPGKEYRISITHPNGPPIPFEVRLKADGDGDWEFKIESAGGSAGGSAGGS [r10_390_TrROS] | 0.183 ± 0.12 | -0.0699 ± 0.059 | 0.134 ± 0.091
16 | SAGGSSIKIPNPNGYEIEIEVTPDRAKIKWRMPGKEQEQEFPPGEDVTIRFPDGMPLTIKIPPPGESAGGSA [r2_57_TrROS] | 0.154 ± 0.26 | 0.456 ± 0.089 | 0.424 ± 0.13
17 | SAGGSAGGSSSSSVVTKPLPEEPLLVVTTTLPPSTPPGTTSTTTIIEPETGKVLETTDINIPSSAGGSAGGS [r12_564_JUSTAS] | 0.954 ± 0.1 | 1.92 ± 0.13 | 1.41 ± 0.11
18 | SAGGSAGGSPGPGTEVEVRYRHPATGRWYPGVAVFTPDGSIRVYFPALGTTVTVPPHTVEPVPSAGGSAGGS [r12_726_TrMRF] | 1.93 ± 0.031 | 1.98 ± 0.056 | 1.93 ± 0.053
19 | SAGGSAGGSAGPDKPIYVMIKFEHPGRKYTHSFEFDSPEDIEEVLDRLPPGYEIKEVEIFSAGGSAGGSAGG [r17_410_TrROS] | 0.946 ± 0.25 | 0.0221 ± 0.1 | 0.482 ± 0.2
20 | SAGGSAGGSRLDATRALLDKLPPGSVTVTVYVNGKPVTFRFGSREEIEEAIEANPDVEVEIEPASAGGSAGG [r6_421_TrMRF] | 1.74 ± 0.16 | 0.93 ± 0.13 | 1.38 ± 0.098
21 | SAGEATVEKLEDGYVVVFKDGSVAFLPAVPPAVPVVEIPFKDPEEGRRAVEELGADVLDIGDDSIVVAGSAG [r5_328_TrMRF] | 0.346 ± 0.033 | -1.19 ± 0.16 | -0.01 ± 0.1
